Assay results as given in publication PMC11066036, “HPK1 citron homology domain regulates phosphorylation of SLP76 and modulates kinase domain interaction dynamics” (Nature Communications, 2024).
Numbering of substitutions follows the chain as printed. In names and notes the source's numbering stands.

T1: HPK1 intact citron homology domain fragment with C-terminal Flag (Flag-CHD) (UniProt Q92918-2 428-821)
T1 construct: HPK1 (MAP4K1), intact CHD fragment from thrombin digestion of the full-length protein; the cut is told as after R427 (C428-E821) for the untagged construct; the protein is printed as M1-E821 (821 residues); the Flag form was made by the same digestion; also called intact CHD with C-flag; recombinant Flag-CHD; source: sf9, purified; thrombin digest of full-length HPK1 with C-terminal Flag (Ni, …)
T1 sequence (looked up): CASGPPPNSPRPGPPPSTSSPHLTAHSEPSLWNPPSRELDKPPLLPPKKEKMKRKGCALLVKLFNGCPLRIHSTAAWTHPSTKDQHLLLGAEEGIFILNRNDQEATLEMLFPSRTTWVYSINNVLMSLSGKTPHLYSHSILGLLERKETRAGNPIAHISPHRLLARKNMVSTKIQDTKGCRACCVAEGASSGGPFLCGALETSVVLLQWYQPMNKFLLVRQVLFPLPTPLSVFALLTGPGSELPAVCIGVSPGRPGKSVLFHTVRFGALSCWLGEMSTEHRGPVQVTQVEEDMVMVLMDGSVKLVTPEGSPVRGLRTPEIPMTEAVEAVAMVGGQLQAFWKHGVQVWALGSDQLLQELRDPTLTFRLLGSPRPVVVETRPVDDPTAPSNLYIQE

T2: HPK1 ΔCHD with LgBit tag (UniProt Q92918 1-483)
T2 construct: HPK1 (MAP4K1) without the CHD, M1-G483; limits as printed for the pMSCV construct of the same name; also called KD + 4PRs; source: HPK1-/- Jurkat cells, transiently transfected, in live cells
T2 sequence (looked up): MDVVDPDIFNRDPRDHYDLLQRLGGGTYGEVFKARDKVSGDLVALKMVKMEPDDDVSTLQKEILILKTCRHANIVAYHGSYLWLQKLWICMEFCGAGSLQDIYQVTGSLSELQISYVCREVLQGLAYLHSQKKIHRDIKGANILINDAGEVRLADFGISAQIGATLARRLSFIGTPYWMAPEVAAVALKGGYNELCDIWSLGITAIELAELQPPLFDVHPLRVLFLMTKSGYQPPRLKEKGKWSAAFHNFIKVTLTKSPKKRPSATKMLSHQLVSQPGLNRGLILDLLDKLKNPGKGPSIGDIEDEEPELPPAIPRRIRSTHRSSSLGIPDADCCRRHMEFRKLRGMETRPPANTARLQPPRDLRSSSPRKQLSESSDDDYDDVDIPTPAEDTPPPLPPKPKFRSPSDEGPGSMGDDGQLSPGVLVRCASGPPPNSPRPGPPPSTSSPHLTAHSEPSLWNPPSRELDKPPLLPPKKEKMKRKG

B1: HPK1 kinase domain S171A (KD SA) (domain or fragment, UniProt Q92918 2-293, looked up)
chain: DVVDPDIFNRDPRDHYDLLQRLGGGTYGEVFKARDKVSGDLVALKMVKMEPDDDVSTLQKEILILKTCRHANIVAYHGSYLWLQKLWICMEFCGAGSLQDIYQVTGSLSELQISYVCREVLQGLAYLHSQKKIHRDIKGANILINDAGEVRLADFGISAQIGATLARRLAFIGTPYWMAPEVAAVALKGGYNELCDIWSLGITAIELAELQPPLFDVHPLRVLFLMTKSGYQPPRLKEKGKWSAAFHNFIKVTLTKSPKKRPSATKMLSHQLVSQPGLNRGLILDLLDKLKN
notes: source: recombinant, purified
B2: HPK1 kinase domain T165E/S171E (KD TSEE WT) (domain or fragment, UniProt Q92918 2-293, looked up)
chain: B1 chain with T164E, A170E
notes: HPK1 (MAP4K1) kinase domain, residues D2-N293, with the phosphomimetic mutations T165E/S171E; also called WT KD; active TSEE form; source: recombinant, purified
B3: HPK1 kinase domain T165E/S171E/L221K (KD TSEE L221K) (domain or fragment, UniProt Q92918 2-293, looked up)
chain: B1 chain with T164E, A170E, L220K
notes: HPK1 (MAP4K1) kinase domain, residues D2-N293, TSEE backbone with L221K; source: recombinant, purified
B4: SLP76 with SmBit tag (natural protein, UniProt Q13094 1-533, looked up)
chain: MALRNVPFRSEVLGWDPDSLADYFKKLNYKDCEKAVKKYHIDGARFLNLTENDIQKFPKLRVPILSKLSQEINKNEERRSIFTRKPQVPRFPEETESHEEDNGGWSSFEEDDYESPNDDQDGEDDGDYESPNEEEEAPVEDDADYEPPPSNDEEALQNSILPAKPFPNSNSMYIDRPPSGKTPQQPPVPPQRPMAALPPPPAGRNHSPLPPPQTNHEEPSRSRNHKTAKLPAPSIDRSTKPPLDRSLAPFDREPFTLGKKPPFSDKPSIPAGRSLGEHLPKIQKPPLPPTTERHERSSPLPGKKPPVPKHGWGPDRRENDEDDVHQRPLPQPALLPMSSNTFPSRSTKPSPMNPLPSSHMPGAFSESNSSFPQSASLPPYFSQGPSNRPPIRAEGRNFPLPLPNKPRPPSPAEEENSLNEEWYVSYITRPEAEAALRKINQDGTFLVRDSSKKTTTNPYVLMVLYKDKVYNIQIRYQKESQVYLLGTGLRGKEDFLSVSDIIDYFRKMPLLLIDGKNRGSRYQCTLTHAAGYP
notes: SLP76 (SH2 domain-containing leukocyte protein of 76 kD); also called SH2 domain-containing leukocyte protein of 76 kD; source: HPK1-/- Jurkat cells, transiently transfected, in live cells
B5: HPK1 intact citron homology domain fragment (C428-E821), untagged (domain or fragment, UniProt Q92918-2 428-821, looked up)
chain: T1 sequence (looked up)
notes: HPK1 (MAP4K1), fragment left after thrombin cut after R427: two PR domains and the intact CHD, residues C428-E821; the protein is printed as M1-E821 (821 residues); Cut out of a full-length construct (T165E, S171E, R319A, thrombin site inserted after V384); none of these changes lies in the fragment; also called WT-CHD; CHD WT; source: sf9, purified; thrombin digest of full-length HPK1 (Ni, …)

Legend:
[1] = molecular target: B5; assay: SPR; Biacore T200; KD variants captured (56-73 RU) by a biotinylated anti-KD Fab on NeutrAvidin chip; WT-CHD injected as analyte at various concentrations; 20 mM HEPES, 300 mM NaCl, 0.1% polysorbate 20, 0.5 mM TCEP, pH 7.4; 25 °C; settings: both partners purified
[2] = molecular target: T1, HPK1 intact citron homology domain …; assay: AlphaScreen or HTRF; TR-FRET saturation binding; KD at 5 µM constant, Flag-CHD 1.53 nM-6.25 µM; anti-KD biotinylated Fab with streptavidin-Lumi4Tb and anti-Flag-d2; 20 mM HEPES, 300 mM NaCl, 0.1% polysorbate 20, 0.5 mM TCEP, pH 7.4; apparent KD, called overestimated by the paper; settings: both partners purified
[3] = molecular target: T2, HPK1 ΔCHD with LgBit tag; assay: split reporter (BiFC, NanoBiT); NanoBit in live HPK1-/- Jurkat cells transiently transfected with SmBit-tagged SLP76 and LgBit-tagged HPK1 forms; luminescence over time, with or without TCR stimulation (anti-CD3 and anti-IgG); settings: partners not purified
[4] = molecular target: full-length HPK1 (M1-E821, T165E, S171E, R319A, Y381E) with N-terminal His tag and C-terminal Flag (UniProt Q92918-2 1-821, T165E | S171E | R319A | Y381E, Isoform 2 (821 aa): C-terminus taken from 8EEC (entity position = residue - 478). N-terminal His and C-terminal Flag left out. A thrombin site after V384 may be present, but its sequence and its prese); assay: AlphaScreen or HTRF; TR-FRET competition; 5 nM full-length HPK1 with C-terminal Flag labelled with anti-KD Fab-streptavidin-Lumi4Tb and anti-Flag-d2; untagged CHD titrated (23.84-97.65 µM as printed) against the KD-CHD interaction within the full-length protein; One site - Fit Ki; settings: both partners purified

Binder: B1
binding result [1]: binds

Binder: B2
Kd [2]: 62.8 nM

Binder: B3
Kd [2]: 37.9 nM

Binder: B4
level of interaction at baseline relative to full-length wild-type [3]: ~0.33 fold of full-length wild-type

Binder: B5
Ki [4]: 5990 nM
